Results reported in the supplement of paper PMC12042874.
± gives the uncertainty stated by the source.

Experiment: amyloid nucleation score (Sup35N fusion, yeast selection) (log enrichment); library NNK1; higher = more nucleation; inactive = no reads after selection
Outline: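 The nucleation score is the log enrichment of output over input reads, calculated with DiMSum and centred on the mode score of non-aggregating sequences. Sequences with under 100 input reads were excluded. Reads came from Illumina sequencing of plasmid inserts from psi-negative yeast expressing Sup35N fused to peptides of 20 random codons, induced 24 hours with 100 μM copper sulfate and grown 7 days at 30°C without adenine and uracil.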

| Substance | amyloid nucleation score |
| --- | --- |
| WSPNNTISNGMTKVWASGRL | 0.78 ± 0.56 |
| NSGRVNTLWFCLSDTMLVTS | inactive |
| VDRLNFLSLSYENFSGSSGE | 4.7 ± 0.064 |
| SGAYATVPVYQEWLSQIKLL | 0.327 ± 1 |
| GHYVDLKSLYPPMTCAMACM | -0.125 ± 0.38 |
| VADGYIHARSCRYFKNIIVR | -1 ± 1.2 |
| GRSRTRTRLLPGSEGGYDRP | -1.64 ± 0.98 |
| VSVFDVWRMQCGNSLVKEGG | -0.088 ± 0.42 |
| DWFWWKIVGWVRNSNMRSYS | 0.946 ± 0.6 |
| VTLPSAMQGSHFTWGPNVAF | -0.422 ± 1.2 |
| PVDVGYIRIPP | 0.093 ± 0.87 |
| VGLLEAFMLRGDSRRCD | -1.25 ± 2.1 |
| MMGIMYLWTWYCN | 0.385 ± 0.58 |
| GFRRGPVSSSV | 0.206 ± 0.67 |
| LLRLRISEIGSRLIKVWKSW | 0.155 ± 0.35 |
| IWKSSRGPLIGLVVLDIARR | 1.01 ± 0.79 |
| VVMVLSKGPDIRSNMRCSSV | -1.9 ± 1.4 |
| MGGWNGNGIFCAYIYM | 0.344 ± 0.15 |
| QYNTLCFGMSTGYLYLNISS | 2.83 ± 0.19 |
| RYKWMYFCFHLIMVGNRMSA | inactive |
| KKYVMSNVTCVE | 0.934 ± 0.47 |
| QLNFYIR | 8.212 ± 0.061 |
| DWGPTNTFGPYQINNLTCSS | -1.91 ± 1.9 |
| AFPPYRIFADRLYMSSPGPA | 0.961 ± 0.69 |
| LSAWPTIEEMVPAHMKTTHA | 0.526 ± 0.54 |

| Substance | amyloid nucleation score |
| --- | --- |
| DRTLDDPGVHHASKAE | inactive |
| RTINYTAMWCYS | 0.721 ± 0.41 |
| YIIVLA | 1.28 ± 0.61 |
| HTFHVL | inactive |
| DLVSVHHVNRLRCWSGCLCE | -0.532 ± 0.51 |
| NRKRFHGMNDASAAYFREVC | -1.33 ± 2.7 |
| TEKAPGTGAKQANSKSSAYA | inactive |
| SWIHVHHL | 0.691 ± 0.7 |
| GGTYPPLDISDFNW | -0.616 ± 0.27 |
| VVLGLWV | inactive |
| KLKGG | -0.27 ± 0.3 |
| LSLGLSGLVQPSDGTVG | -0.284 ± 0.7 |
| GVGDTNCSEL | 0.178 ± 0.33 |
| ILSWSNSGRMNHRPLVYERS | 0.963 ± 0.43 |
| VEDAIDACKFNCDSIDMTTD | -0.206 ± 0.75 |
| TVFFDYDDIYLVNSVFRSAV | -0.113 ± 0.44 |
| HMRTNKVFPCYPWPFTYTPP | inactive |
| DVILCAK | inactive |
| HILYKRFFFGSCSSGCHL | -0.428 ± 0.47 |
| LQLWLMDGSSRGRWV | 0.12 ± 0.64 |
| NNRCPCYSILWNRWRNKVA | inactive |
| GARYVLYMLT | -0.85 ± 0.88 |
| MNLSYSTIVIYHRNEDCNVY | 4.08 ± 0.094 |
| TGGTNGHKASCEVRFTVTER | 1.08 ± 0.41 |
| AFCSAAVQAEICEWCNSIYA | -0.431 ± 0.64 |

| Substance | amyloid nucleation score |
| --- | --- |
| QEPCGW | -0.172 ± 0.29 |
| NLCFLITNYINRLNFYNFVV | 0.807 ± 0.93 |
| YVFSLVSESLQIIYHPLLLL | -0.189 ± 0.41 |
| RWAVLACFCMGD | 0.434 ± 0.81 |
| YRICVKSSVQAGRLMFKVTG | -1.61 ± 2.7 |
| DAWGTVRYSIGFKGVVAMTS | 0.149 ± 0.29 |
| SYVYHPTSRLVWIIRMIT | 0.5 ± 0.38 |
| RGGTMGYILDNKCQNFVGTW | inactive |
| SQIYTFVDLFLSS | 1.26 ± 0.68 |
| RRTLSSGVSLYCYPKLGVAR | -0.24 ± 0.53 |
| AFRFHQHMACREL | 4.36 ± 0.055 |
| AIFFGGIGKVCVKLVLCVRL | 0.248 ± 0.27 |
| YWNMTCNTV | -0.139 ± 0.52 |
| CFRHRYRQLGIMWWGLRLQL | -1.44 ± 2.4 |
| LTCEFRGTRPMMYASDPLFY | 1.14 ± 0.76 |
| AIFNTGNMWDTLRRHSGVHV | -0.059 ± 1.2 |
| WGKYSD | 0.343 ± 0.7 |
| SSKLDVCEFADDGQLVFGVG | -0.394 ± 0.61 |
| NHYCRFHFTLESFLAGHVAN | 1.38 ± 0.23 |
| LPVHGMFWSVR | -0.157 ± 0.78 |
| RHTGPIMLSWDAKGRGK | 0.622 ± 0.44 |
| MYSLVCNHCAQSISIPSRWS | 3.97 ± 0.11 |
| GGGGNVGGFFMWCSVYSAGV | -0.105 ± 0.96 |
| CMHEKIYIITCRSCGLREIR | 0.164 ± 0.39 |
| TKQFEPFCLRLSVVMLLLQE | 0.034 ± 0.45 |

| Substance | amyloid nucleation score |
| --- | --- |
| FLSLFVSVV | -0.18 ± 0.97 |
| SKDKGSTLGTSNLGRDGSWK | 0.5 ± 0.45 |
| STDLSYVSCAYVSTFLPNFR | 2.2 ± 0.21 |
| GAVICICCIIIGKYC | 3.74 ± 0.082 |
| FGLCCRSRVFWRWLIKDWKD | -0.566 ± 1.9 |
| VILWRSRIASRCPTLM | -0.415 ± 1.4 |
| FSFGIVSVMGYVLYRRRPWA | 1.08 ± 0.63 |
| ASRRSSHHSGRMHRAQLSGF | -1.5 ± 1.8 |
| RVRVSLTWQLISLVVMSEYR | 0.809 ± 0.64 |
| HNIKVAGQMYANKSRICTSM | 0.412 ± 0.47 |
| QCRQAQLVLFGVSVWTGYVK | -0.083 ± 0.38 |
| LDETIQSNRDTHLCQFA | -0.29 ± 0.56 |
| RYGGRCNTR | 0.016 ± 1.7 |
| SWALRWYPELIET | 0.076 ± 0.29 |
| NAVITESLIDKAPVGSNWDT | -0.498 ± 0.59 |
| LFFHL | 0.83 ± 0.79 |
| DCLRILDGQYRRRIDRALRV | 0.09 ± 0.7 |
| LNSDCCPNSFDKHFLSFLCM | 0.433 ± 0.81 |
| SVANGALSRLAYIKRYRVWW | 0.522 ± 0.45 |
| VYLNFTISKVEVVTFFFIMG | 0.165 ± 0.34 |
| VSTNKRVVGMRRFGTYTRYV | -0.309 ± 0.6 |
| SRRVQLYVLGFRGIKSGTFL | -0.066 ± 0.62 |
| SYRIMPLMCILNCLFNCIYI | 4.8 ± 0.059 |
| HNYVWCSPC | 7.694 ± 0.07 |
| KWDLRPYFFLMVLEQGCSMW | -0.506 ± 1 |

| Substance | amyloid nucleation score |
| --- | --- |
| SNSAFCNGSVMCVEVSLRHA | 7.037 ± 0.062 |
| PGRFLGLNSMTALVWY | 0.095 ± 0.37 |
| PYPYAISRYVFMVSNSDMFM | 4.53 ± 0.054 |
| FNIIASPSWVSVRNHGNLWV | 4.91 ± 0.062 |
| DYDRTSFFEDSFVTD | -0.7 ± 1.1 |
| WFNWVCCNGNAWIKDRF | 7.66 ± 0.054 |
| SVGLTFNGGVYCSHVERTSW | 1.93 ± 0.19 |
| FPYILMKRAKQYALGPRHLL | -0.435 ± 0.32 |
| FIFPAHCSLRSIDFSQGYIR | -0.321 ± 0.36 |
| RSDDKVSRSVGDHCTVGVLR | 6.441 ± 0.061 |
| VAACLKNMIESVQSVKYIWR | 0.837 ± 0.93 |
| GSRSQCAPSQFLAAGTHNKF | -1.17 ± 0.84 |
| YIMILYRKGMFILRVFSLLL | -0.293 ± 0.24 |
| LMSASNLNAVSKQCIRLRRC | 1.48 ± 0.55 |
| GENYLGCLGSFWKTSNTCCP | -0.881 ± 1.4 |
| WSSPQEQT | -1.59 ± 1.5 |
| DMNILVLLMGDVVRLATTEW | 2.68 ± 0.17 |
| IWPYLGSASVL | 1.73 ± 0.35 |
| AKYPMQRLLRFLFLVVR | 0.374 ± 0.48 |
| FWVFLTRKLCYSHGRVLALV | -0.708 ± 1.1 |
| PLSWTNMKYKGSCVYFMVFF | -2.14 ± 2.4 |
| NGNLKRSSEVFHCFGISLEF | 0.694 ± 0.36 |
| YPPRAQDMTRSAQRKCQRGV | inactive |
| SNRFFVPRA | -0.334 ± 0.5 |
| DNYVMWVLEGLSYVLGNNRI | -0.087 ± 1 |
